In patent US20220265821A1 (PASCAL BIOSCIENCES, published 2022):
Residue numbers refer to the chain shown, from its start. Like-named read-outs stand apart in the source and are kept apart here.

T1: human VpreB (on the pre-BCR-expressing human pre-B cell line NALM-6) (human, UniProt P12018 20-145)
T1 construct: On NALM-6 cells VpreB stands in the pre-BCR together with lambda-5 and the mu heavy chain; also called VPREB1; VpreB subunit of the SLC of human pre-BCR
T1 sequence: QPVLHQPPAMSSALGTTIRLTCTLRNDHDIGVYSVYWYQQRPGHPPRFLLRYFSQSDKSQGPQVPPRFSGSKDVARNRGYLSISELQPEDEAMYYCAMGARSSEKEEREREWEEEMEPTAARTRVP

B1: lambda-5 antibody 4-19A9 (recombinant mouse-human chimeric IgG1/kappa) (antibody, V domains shown)
VH: EVQLQQSGTVLARPGASVKMSCKASGYTFTSYWMHWVKQRPGQGLEWIGAIYPGNSDTSYNQKFKGKARLTAVTSASTAYMELSSLTNEDSAVYYCTRADYDGTPFDYWGQGTTLTVSS
VL: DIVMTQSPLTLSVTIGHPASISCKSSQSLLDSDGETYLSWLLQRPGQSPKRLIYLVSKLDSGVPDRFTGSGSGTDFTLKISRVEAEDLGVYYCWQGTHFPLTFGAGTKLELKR
notes: also called mAb 4-19A9
B2: lambda-5 antibody 4-7C1 (recombinant mouse-human chimeric IgG1/kappa) (antibody, V domains shown)
VH: B1 VH with K23R, A24P, G44D, R69K
VL: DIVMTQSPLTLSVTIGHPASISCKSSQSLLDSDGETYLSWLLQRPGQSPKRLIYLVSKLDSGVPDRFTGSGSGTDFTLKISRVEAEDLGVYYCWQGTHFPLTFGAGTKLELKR
notes: also called mAb 4-7C1
B3: lambda-5 antibody 4-18G6 (recombinant mouse-human chimeric IgG1/kappa) (antibody, V domains shown)
VH: B1 VH with S31N, I51V, N61S, K65T, R69K, E82D
VL: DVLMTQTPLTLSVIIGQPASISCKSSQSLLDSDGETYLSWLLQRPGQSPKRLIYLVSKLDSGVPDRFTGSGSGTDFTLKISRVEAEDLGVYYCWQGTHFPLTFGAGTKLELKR
notes: also called mAb 4-18G6
B4: lambda-5 antibody 4-20D2 (recombinant mouse-human chimeric IgG1/kappa) (antibody, V domains shown)
VH: B1 VH with T28S, R69K, A99G
VL: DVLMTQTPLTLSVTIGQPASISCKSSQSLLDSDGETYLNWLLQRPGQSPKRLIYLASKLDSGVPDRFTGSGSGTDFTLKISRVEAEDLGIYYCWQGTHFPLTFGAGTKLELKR
notes: also called mAb 4-20D2
B5: lambda-5 antibody 4-17G9 (recombinant mouse-human chimeric IgG1/kappa) (antibody, V domains shown)
VH: B1 VH with K23Q, S31N, K63N, R69E, S77T, N88D
VL: DIVMTQSPLTLSVTIGHPASISCKSSQSLLDSDGETYLSWLLQRPGQSPKRLIYLVSKLDSGVPDRFTGSGSGTDFTLKISRVEAEDLGVYYCWQGTHFPLTFGAGTKVELKR
notes: also called mAb 4-17G9
B6: lambda-5 antibody 4-6D12 (recombinant mouse-human chimeric IgG1/kappa) (antibody, V domains shown)
VH: B1 VH with S31N, R69K, Y95F
VL: B5 VL with V3L, K50E, V109L
notes: also called mAb 4-6D12
B7: lambda-5 antibody 4-7A6 (recombinant mouse-human chimeric IgG1/kappa) (antibody, V domains shown)
VH: B1 VH with A16T, P53L, S56T, R69K, T78S
VL: B5 VL with I2V, S7N, P8A, K24R, V109L
notes: also called mAb 4-7A6
B8: VpreB antibody 5-2D7 (recombinant mouse-human chimeric IgG1/kappa) (antibody, V domains shown)
VH: QVQLQQPGAELVKPGASVKLSCKASGYTFTSYWMQWVKQRPGQGLEWIGEINPSNGRINYNEKFKSKATLTVDISSSTAYMQLSSLTSEDSAVYYCARSGLLDYWGQGTTLTDSS
VL: DVLMTQTPLSLPVSLGDQASISCRSSQSLIHSNGNTYLHWSLQKPGQSPKLLIYKVSNRFSGVPDRFSGSGSGTDFTLKISSVEAEDLGVYFCSQSTYVPLTFGAGTKLELKR
notes: also called mAb 5-2D7
B9: VpreB antibody 5-11D1 (recombinant mouse-human chimeric IgG1/kappa) (antibody, V domains shown)
VH: EVQLEESGPSLVKPSQTLSLTCSVTGDSITSDYWTWIRKFPGNKLEYMGYISYSGRTYYNPSLKSRISITRDTSRNQYYLQLSSVTTEDTATYYCARERYYYGSLDYWGQGTTLTVSS
VL: B8 VL with I30V, S41Y, S82R, S96T, Y98H, L101P, A105G, L111I
notes: also called mAb 5-11D1
B10: lambda-5 antibody 4-15E6 (recombinant mouse-human chimeric IgG1/kappa) (antibody, V domains shown)
VH: EVQLEESGAELVRSGASVKLSCTASGFNIKDYYLHWVKQRPEQGLEWIGWIDPENGNTDYAPKFQGKATMTADTSSNTAYLQLSSLTSEDTAVYYCNEGYYDYDTDSAMDYWGQGTSVTVSS
VL: B8 VL with I30V, N33D, N35I, S41Y, S82R, Y98R, L101W, A105G, L111I
notes: also called mAb 4-15E6
B11: VpreB antibody 5-14A8 (recombinant mouse-human chimeric IgG1/kappa) (antibody, V domains shown)
VH: B9 VH with K44I, Y53S, T57I, R75K
VL: B8 VL with S28G, I30V, S41Y, S82R, S96T, Y98H, L101P, A105G, L111I
notes: also called mAb 5-14A8
B12: VpreB antibody 5-9B12 (recombinant mouse-human chimeric IgG1/kappa) (antibody, V domains shown)
VH: B9 VH with R75K, N76K, S83N
VL: B8 VL with L3V, I30V, S41Y, S82R, S96T, Y98H, L101P, A105G, L111I
notes: also called mAb 5-9B12
B13: lambda-5 antibody 4-12G1 (recombinant mouse-human chimeric IgG1/kappa) (antibody, V domains shown)
VH: B10 VH with N57A, T69S, S88F, T105A
VL: B8 VL with I30V, N33D, N35I, S41Y, S82R, T97A, Y98R, L101W, A105G, L111I
notes: also called mAb 4-12G1
B14: VpreB antibody 5-4A9 (recombinant mouse-human chimeric IgG1/kappa) (antibody, V domains shown)
VH: B8 VH with Q1E, P7S, K19Q, I58N, S66R, I74T, D113V
VL: B8 VL with I30V, S41Y, K79T, S82R
notes: also called mAb 5-4A9
B15: VpreB antibody 5-14H5 (recombinant mouse-human chimeric IgG1/kappa) (antibody, V domains shown)
VH: B8 VH with Y32N, Q35N, I74K, D113V
VL: B8 VL with I30V, S41Y, S82R, V99L, K108R
notes: also called mAb 5-14H5
B16: lambda-5 antibody 4-5G11 (recombinant mouse-human chimeric IgG1/kappa) (antibody)
heavy: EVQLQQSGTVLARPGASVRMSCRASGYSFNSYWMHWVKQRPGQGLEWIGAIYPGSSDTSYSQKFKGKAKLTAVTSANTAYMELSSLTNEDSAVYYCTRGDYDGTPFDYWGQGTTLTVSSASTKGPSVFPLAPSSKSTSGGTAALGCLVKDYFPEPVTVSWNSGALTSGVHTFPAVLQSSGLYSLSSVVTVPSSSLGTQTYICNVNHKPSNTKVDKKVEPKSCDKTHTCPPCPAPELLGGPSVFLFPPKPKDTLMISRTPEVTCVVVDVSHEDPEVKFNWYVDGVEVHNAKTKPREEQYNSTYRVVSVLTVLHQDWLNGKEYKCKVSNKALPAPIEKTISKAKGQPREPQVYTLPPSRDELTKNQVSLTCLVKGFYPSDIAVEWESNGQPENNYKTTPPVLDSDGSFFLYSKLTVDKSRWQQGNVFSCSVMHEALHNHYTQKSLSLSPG
light: DILMTQSPLTLSVTIGQPASISCKSGQSLLDSDGKTYLNWLLQRPGQSPKRLIYLVSKLHSGVPDRFTGSGSGTDFTLKISRVEAEDLGVYYCWQGTHFPLTFGAGTKLELKRTVAAPSVFIFPPSDEQLKSGTASVVCLLNNFYPREAKVQWKVDNALQSGNSQESVTEQDSKDSTYSLSSTLTLSKADYEKHKVYACEVTHQGLSSPVTKSFNRGEC
notes: also called mAb 4-5G11
B17: lambda-5 antibody 4-9H8 (recombinant mouse-human chimeric IgG1/kappa) (antibody)
heavy: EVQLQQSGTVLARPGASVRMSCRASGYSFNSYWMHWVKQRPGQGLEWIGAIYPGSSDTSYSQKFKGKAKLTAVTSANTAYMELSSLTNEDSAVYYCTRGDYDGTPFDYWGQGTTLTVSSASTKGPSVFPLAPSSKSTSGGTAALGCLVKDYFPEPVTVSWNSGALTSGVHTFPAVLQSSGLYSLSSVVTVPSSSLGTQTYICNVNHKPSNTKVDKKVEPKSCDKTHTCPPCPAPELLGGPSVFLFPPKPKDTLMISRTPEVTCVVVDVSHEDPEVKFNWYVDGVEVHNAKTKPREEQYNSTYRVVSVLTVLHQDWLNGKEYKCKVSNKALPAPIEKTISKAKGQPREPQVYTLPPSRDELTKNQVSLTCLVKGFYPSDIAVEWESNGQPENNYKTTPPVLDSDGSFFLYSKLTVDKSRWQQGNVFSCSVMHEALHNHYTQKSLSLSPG
light: B16 light with L3V
notes: also called mAb 4-9H8

Experiments:
Assay in all cases: flow cytometry, saturation binding of recombinant chimeric mAb to NALM-6 cells
[1] = target: T2, human lambda-5 (on the pre-BCR-expressing human pre-B cell line NALM-6) (human, UniProt P15814 38-213)
T2 construct: On NALM-6 cells lambda-5 stands in the pre-BCR together with VpreB and the mu heavy chain; also called IGLL1; lambda-5 subunit of the SLC of human pre-BCR
Experimental: (§1) Avidity of each VpreB antibody was determined by measuring saturation binding kinetics of antibody to NALM-6 cells using flow cytometry as follows. The cells were stained with a 3-fold descending titration of recombinant, chimeric VpreB antibody ranging from 133 nM to 0.002 nM. A PE/Cy5-labeled mouse anti-human IgG1 secondary antibody (Southern Biotech #9042-13) was used to detect cell-bound anti-VpreB or an IgG1 isotype control antibody (PAS-ISO6H4). The 50% effective concentration (EC₅₀) was calculated using GraphPad Prism software. Antibodies 5-4A9, 5-11D1, 5-14A8, and 5-14H5 all bound to VpreB-expressing NALM-6 cells with unusually strong binding avidity (<400 pM; FIG. 13, Table 16).
The avidity of each lambda-5 antibody was determined by measuring saturation binding kinetics of recombinant, chimeric mAb to NALM-6 cells using flow cytometry as described for the VpreB antibody saturation binding kinetics experiment. Antibodies 4-6D12, 4-5G11, 4-7A6, 4-7C1, 4-9H8, 4-12G1, 4-15E6, 4-17G9, 4-18G6, 4-19A9, and 4-20D2 all bound to VpreB- expressing NALM-6 cells with strong avidity (<30 nM; FIG. 16, Table 18).

[2] = target: T2, human lambda-5 (on the …); remark: listed apart in the source
[3] = target: T1, human VpreB (on the pre-BCR-expressing …)
Experimental: as §1
The binding avidity of the VpreB mAbs 5-2D7 and 5-9B12 was also determined by measuring saturation binding kinetics of recombinant, chimeric mAb to NALM-6 cells using flow cytometry as described above. Both mAbs bound to VpreB-expressing NALM-6 cells with unusually strong avidity (<400 pM; FIG. 15, Table 17).

[4] = target: T1, human VpreB (on the pre-BCR-expressing …); remark: listed apart in the source
[5] = target: T1, human VpreB (on the pre-BCR-expressing …); remark: listed apart in the source
Experimental: as §1

T2 sequence (P15814 38-213 limits assumed): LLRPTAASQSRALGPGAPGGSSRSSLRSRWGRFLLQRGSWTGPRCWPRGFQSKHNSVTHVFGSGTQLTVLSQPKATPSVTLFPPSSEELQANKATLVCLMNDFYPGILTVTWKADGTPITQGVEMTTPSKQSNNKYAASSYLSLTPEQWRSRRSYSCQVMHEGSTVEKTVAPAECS

Binder | EC50 [1] [nM] | EC50 [2] [nM] | EC50 [3] [nM] | EC50 [4] [nM] | EC50 [5] [nM]
B1 | 8.1 | < 30 |  |  | 
B2 | 8.4 | < 30 |  |  | 
B3 | 10.2 | < 30 |  |  | 
B4 | 26.3 | < 30 |  |  | 
B5 | 9 | < 30 |  |  | 
B6 | 1.9 | < 30 |  |  | 
B7 | 2.3 | < 30 |  |  | 
B8 |  |  | 0.34 | < 0.4 | 
B9 |  |  |  | < 0.4 | 0.143
B10 | 3.7 | < 30 |  |  | 
B11 |  |  |  | < 0.4 | 0.227
B12 |  |  | 0.12 | < 0.4 | 
B13 | 4.5 | < 30 |  |  | 
B14 |  |  |  | < 0.4 | 0.396
B15 |  |  |  | < 0.4 | 0.115
B16 | 6.2 | < 30 |  |  | 
B17 | 7.4 | < 30 |  |  | 
